Some targets named below: wild-type importin β (human, UniProt Q14974 1-876); importin β I178A (human, UniProt Q14974 1-876, I178A); importin β E214A (human, UniProt Q14974 1-876, E214A); importin β F217A (human, UniProt Q14974 1-876, F217A); GST–RanGTP (UniProt P62826 1-216).
What all share (experiment): ELISA
Test [1] has as its target T1, GST-tagged Nup153 (895–1475) ( (mammalian), UniProt P49790 895-1475).
T1 sequence (looked up): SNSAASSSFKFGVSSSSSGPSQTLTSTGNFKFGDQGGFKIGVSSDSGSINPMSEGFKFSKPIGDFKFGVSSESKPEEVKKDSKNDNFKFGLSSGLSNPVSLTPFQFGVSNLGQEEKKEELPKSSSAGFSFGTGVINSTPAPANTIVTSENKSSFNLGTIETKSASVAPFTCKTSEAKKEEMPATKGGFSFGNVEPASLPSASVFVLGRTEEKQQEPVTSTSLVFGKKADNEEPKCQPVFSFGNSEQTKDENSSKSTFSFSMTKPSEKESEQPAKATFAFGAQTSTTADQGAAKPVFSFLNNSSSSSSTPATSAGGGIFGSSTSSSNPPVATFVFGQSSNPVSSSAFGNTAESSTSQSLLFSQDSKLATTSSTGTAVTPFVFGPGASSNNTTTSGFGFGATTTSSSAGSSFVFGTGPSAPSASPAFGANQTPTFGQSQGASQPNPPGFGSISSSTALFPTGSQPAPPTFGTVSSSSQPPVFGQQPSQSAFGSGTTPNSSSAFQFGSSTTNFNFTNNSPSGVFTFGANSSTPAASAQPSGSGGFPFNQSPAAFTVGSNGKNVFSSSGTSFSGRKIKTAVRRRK

B1: importin β (1–396) (domain or fragment, human, UniProt Q14974 1-396, looked up)
chain: MELITILEKTVSPDRLELEAAQKFLERAAVENLPTFLVELSRVLANPGNSQVARVAAGLQIKNSLTSKDPDIKAQYQQRWLAIDANARREVKNYVLQTLGTETYRPSSASQCVAGIACAEIPVNQWPELIPQLVANVTNPNSTEHMKESTLEAIGYICQDIDPEQLQDKSNEILTAIIQGMRKEEPSNNVKLAATNALLNSLEFTKANFDKESERHFIMQVVCEATQCPDTRVRVAALQNLVKIMSLYYQYMETYMGPALFAITIEAMKSDIDEVALQGIEFWSNVCDEEMDLAIEASEAAEQGRPPEHTSKFYAKGALQYLVPILTQTLTKQDENDDDDDWNPCKAAGVCLMLLATCCEDDIVPHVLPFIKEHIKNPDWRYRDAAVMAFGCILEG
On to B1, for which the dissociation constant (Kd) in test [1] came out at 1.2 ± 0.1 nM.

B2: importin β m-N (1–396) (domain or fragment, human, UniProt Q14974 1-396, looked up)
chain: MELITILEKTVSPDRLELEAAQKFLERAAVENLPTFLVELSRVLANPGNSQVARVAAGLQIKNSLTSKDPDIKAQYQQRWLAIDANARREVKNYVLQTLGTETYRPSSASQCVAGIACAEIPVNQWPELIPQLVANVTNPNSTEHMKESTLEAIGYICQDIDPEQLQDKSNEILTAIAQGMRKEEPSNNVKLAATNALLNSLEFTKANFDKESERHAIMQVVCEATQCPDTRVRVAALQNLVKIMSLYYQYMETAMGPALFARTIEAMKSDIDEVALQGIEFWSNVCDEEMDLAIEASEAAEQGRPPEHTSKFYAKGALQYLVPILTQTLTKQDENDDDDDWNPCKAAGVCLMLLATCCEDDIVPHVLPFIKEHIKNPDWRYRDAAVMAFGCILEG
In turn, B2 yielded a Kd in test [1] of 160 ± 25.3 nM.

B3: importin β (304–876) (domain or fragment, human, UniProt Q14974 304-876, looked up)
chain: GRPPEHTSKFYAKGALQYLVPILTQTLTKQDENDDDDDWNPCKAAGVCLMLLATCCEDDIVPHVLPFIKEHIKNPDWRYRDAAVMAFGCILEGPEPSQLKPLVIQAMPTLIELMKDPSVVVRDTAAWTVGRICELLPEAAINDVYLAPLLQCLIEGLSAEPRVASNVCWAFSSLAEAAYEAADVADDQEEPATYCLSSSFELIVQKLLETTDRPDGHQNNLRSSAYESLMEIVKNSAKDCYPAVQKTTLVIMERLQQVLQMESHIQSTSDRIQFNDLQSLLCATLQNVLRKVQHQDALQISDVVMASLLRMFQSTAGSGGVQEDALMAVSTLVEVLGGEFLKYMEAFKPFLGIGLKNYAEYQVCLAAVGLVGDLCRALQSNIIPFCDEVMQLLLENLGNENVHRSVKPQILSVFGDIALAIGGEFKKYLEVVLNTLQQASQAQVDKSDYDMVDYLNELRESCLEAYTGIVQGLKGDQENVHPDVMLVQPRVEFILSFIDHIAGDEDHTDGVVACAAGLIGDLCTAFGKDVLKLVEARPMIHELLTEGRRSKTNKAKTLATWATKELRKLKNQA
In test [1], B3 returned a Kd of 152 ± 17.5 nM.

B4: GST-tagged full-length Nup62 (natural protein, UniProt P17955 1-525, looked up)
chain: MSGFNFGGTGAPAGGFTFGTAKTATTTPATGFSFSASGTGTGGFNFGTPSQPAATTPSTSLFSLATQTSTTQTPGFNFGTTPASGGTGFSLGISTPKLSLSSTAATPATANTGSFGLGSSTLTNAISGASTSSQGTAPTGFVFGSSTTSAPSTGTTGFSFTSGSASQPGASGFNIGSVGSLAQPTALSGSPFTPATLATTTAGATQPAAATPTAATTSAGSTLFASIAAAPASSSTTVLSLSAPATTAATPTAGTLGFSLKAPGAAPGASTTSTTTTTTTTTTTASTSSSTTTTGFALSLKPLVPAGPSSVAATALPASSTAVGTTTGPAMTYAQLESLINKWSLELEDQERHFLQQATQVNAWDRTLIENGEKITSLHREVEKVKLDQKRLDQELDFILSQQKELEDLLSPLEESVKEQSGTIYLQHADEEREKTYKLAENIDAQLKRMAQDLKDIIEHLNMAGGPADTSDPLQQICKILNAHMDSLQWVDQSSALLQRRVEEASRVCESRRKEQERSLRIAFD
B4: the dissociation constant (Kd) with wild-type importin β was found to be 77.3 ± 11.6 nM; with importin β I178A it was 89 ± 9 nM; with importin β E214A, 770 ± 123 nM; in the test with importin β F217A, 227 ± 33.3 nM.

B5: importin β I178A/F217A/Y255A/I263R (m-N) (natural protein)
chain: MELITILEKTVSPDRLELEAAQKFLERAAVENLPTFLVELSRVLANPGNSQVARVAAGLQIKNSLTSKDPDIKAQYQQRWLAIDANARREVKNYVLQTLGTETYRPSSASQCVAGIACAEIPVNQWPELIPQLVANVTNPNSTEHMKESTLEAIGYICQDIDPEQLQDKSNEILTAIAQGMRKEEPSNNVKLAATNALLNSLEFTKANFDKESERHAIMQVVCEATQCPDTRVRVAALQNLVKIMSLYYQYMETAMGPALFARTIEAMKSDIDEVALQGIEFWSNVCDEEMDLAIEASEAAEQGRPPEHTSKFYAKGALQYLVPILTQTLTKQDENDDDDDWNPCKAAGVCLMLLATCCEDDIVPHVLPFIKEHIKNPDWRYRDAAVMAFGCILEGPEPSQLKPLVIQAMPTLIELMKDPSVVVRDTAAWTVGRICELLPEAAINDVYLAPLLQCLIEGLSAEPRVASNVCWAFSSLAEAAYEAADVADDQEEPATYCLSSSFELIVQKLLETTDRPDGHQNNLRSSAYESLMEIVKNSAKDCYPAVQKTTLVIMERLQQVLQMESHIQSTSDRIQFNDLQSLLCATLQNVLRKVQHQDALQISDVVMASLLRMFQSTAGSGGVQEDALMAVSTLVEVLGGEFLKYMEAFKPFLGIGLKNYAEYQVCLAAVGLVGDLCRALQSNIIPFCDEVMQLLLENLGNENVHRSVKPQILSVFGDIALAIGGEFKKYLEVVLNTLQQASQAQVDKSDYDMVDYLNELRESCLEAYTGIVQGLKGDQENVHPDVMLVQPRVEFILSFIDHIAGDEDHTDGVVACAAGLIGDLCTAFGKDVLKLVEARPMIHELLTEGRRSKTNKAKTLATWATKELRKLKNQA
Molecule B5 yielded a Kd in the test with GST–RanGTP of 3.9 ± 0.4 nM.

These data come from article PMC2172684 (The Journal of Cell Biology, 2003).
